Test results: patent publication US20110117602A1

What was measured:
[1] = biological target: HLA-DR on M8166 cells (human); assay: FACS analysis, PE-labeled L243 on M8166 cells
[2] = biological target: HLA-DR on Daudi cells (human); assay: FACS analysis, PE-labeled L243 on Daudi cells

Chain of L243 mouse monoclonal antibody to HLA-DR α chain (VH): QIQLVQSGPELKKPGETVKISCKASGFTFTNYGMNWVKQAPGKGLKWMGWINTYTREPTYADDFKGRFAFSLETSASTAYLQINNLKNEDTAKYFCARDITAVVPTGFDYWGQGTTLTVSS
Chain of L243 mouse monoclonal antibody to HLA-DR α chain (VL): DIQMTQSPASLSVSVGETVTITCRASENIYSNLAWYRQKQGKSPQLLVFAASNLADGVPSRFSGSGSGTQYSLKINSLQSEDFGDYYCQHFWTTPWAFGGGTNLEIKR

fluorescence as a fraction of that of S1T cells [1]: 0.01
fluorescence as a fraction of that of S1T cells [2]: 0.1
Substance: L243 mouse monoclonal antibody to HLA-DR α chain
